From publication PMC6192543 (Journal of the American Chemical Society, 2018) come the findings set out here.

The assay concerns the target human A2A adenosine receptor variant A2AAR[K233W] (human, UniProt P29274 1-316, N154Q | K233W, uniformly 15N-labelled, ~70% 2H). The assay is described as follows: NMR titration.

human A2A adenosine receptor variant A2AAR[K233W], sequence (P29274 1-316 N154Q/K233W): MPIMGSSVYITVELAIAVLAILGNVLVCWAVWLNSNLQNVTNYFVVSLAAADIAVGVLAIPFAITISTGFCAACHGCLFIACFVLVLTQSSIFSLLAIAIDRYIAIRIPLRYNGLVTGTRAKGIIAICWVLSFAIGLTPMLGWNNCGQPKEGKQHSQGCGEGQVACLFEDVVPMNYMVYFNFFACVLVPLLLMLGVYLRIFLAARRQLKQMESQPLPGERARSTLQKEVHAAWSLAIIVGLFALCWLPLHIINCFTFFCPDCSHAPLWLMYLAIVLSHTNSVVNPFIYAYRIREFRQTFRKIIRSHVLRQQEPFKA

As to RVFNDARDIIQRMHLRQYELL (peptide, UniProt P63092 374-394, looked up) [C-terminal polypeptide GαS(374–394)[C379A]], the binding result was “binds”.
